Data as given in US20230279088A1 (NATIONAL RESEARCH COUNCIL OF CANADA, published 2023).

Target: T1, Aβ1-42 oligomers (Aβ1-42 preparation consisting predominantly of higher oligomers) (UniProt P05067 672-713)
T1 construct: domain: Aβ1-42; Oligomeric aggregate; also called Aβ oligomers; Aβ-oligomer
Assay: ELISA: ABP immobilized on the plate, exposed to Aβ, bound Aβ detected with 6E10 or 4G8
Experimental: ELISA: Aβ-binding assays were carried out as described by Chakravarthy et al (2013). Maxisorp 96-well ELISA plates (Nunc) were coated with (100-500 ng/well) either free ABP (synthetic) or various FC5-ABP constructs overnight at 4° C. in PBS. The wells were blocked with 1% BSA in TBS-T for 30 min and then incubated with Af31-42 preparations consisting predominantly of either monomer and dimers (Mo) or higher oligomers (010 in TBS-T at RT for 45 min with gentle agitation. Following three TBS-T washes, bound Aβ was detected by incubating HRP-conjugated Aβ-specific antibody (6E10 or 4G8) for 90 min at RT in TBS-T. The bound antibody was detected with SureBlueTM TMB reagent kit (KPL) by colorimetric measurement at 450 nm according to manufacturer's instructions.
A Coomassie blue stained gel after separation of FC5 fusion molecules by SDS-PAGE (NR-non-reducing and R-reducing conditions) indicating successful production of recombinant fusion molecule is shown in FIG. 2A. Free or fused ABP was immobilized on ELISA plate by coating samples in phosphate buffered saline (PBS) overnight at 4° C. and exposed to Aβ preparations as described by Chakravarthy et al., 2013. Bound Aβ was detected with Aβ-specific antibody 6E10 or 4G8 (Chakravarthy et al., 2013). […] Bound Aβ was detected with specific antibody as above. […]

T1 sequence (P05067 672-713 limits assumed): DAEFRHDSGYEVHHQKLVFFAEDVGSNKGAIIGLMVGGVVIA

KTFKTRKASAQASLASKDKTPKSKSKKRNSTQLKSRVKNI (also called P4-5 peptide (ABP)) [free ABP (synthetic amyloid-binding peptide)]: binds.
